Here are results for one substance from patent US20240076390A1.

Assay [1] concerns the target Recombinant Human Axl Protein Axl-tag 5 (human) (UniProt P30530). In words: competition ELISA on immobilized Axl-tag 5; unlabeled antibody 50 ug/mL; competitor Biot-v77-2a37.1 1 ug/mL. Background: An ELISA detects its analyte on a solid surface through an enzyme-linked reagent.
Assay [2] shares this target. In words: competition ELISA on immobilized Axl-tag 5; unlabeled antibody 50 ug/mL; competitor Biot-M77-297b81.1.1 1 ug/mL (signal is of the biotinylated antibody).
Assay [3] has the same target. In words: competition ELISA on immobilized Axl-tag 5; unlabeled antibody 50 ug/mL; competitor Biot-M77-297b81.1.1 1 ug/mL.
The target is the same in assay [4]. In words: competition ELISA on immobilized Axl-tag 5; unlabeled antibody 50 ug/mL; competitor Biot-v77-2a37.1 1 ug/mL (signal is of the biotinylated antibody).

UniProt P30530, sequence (P30530 26-451): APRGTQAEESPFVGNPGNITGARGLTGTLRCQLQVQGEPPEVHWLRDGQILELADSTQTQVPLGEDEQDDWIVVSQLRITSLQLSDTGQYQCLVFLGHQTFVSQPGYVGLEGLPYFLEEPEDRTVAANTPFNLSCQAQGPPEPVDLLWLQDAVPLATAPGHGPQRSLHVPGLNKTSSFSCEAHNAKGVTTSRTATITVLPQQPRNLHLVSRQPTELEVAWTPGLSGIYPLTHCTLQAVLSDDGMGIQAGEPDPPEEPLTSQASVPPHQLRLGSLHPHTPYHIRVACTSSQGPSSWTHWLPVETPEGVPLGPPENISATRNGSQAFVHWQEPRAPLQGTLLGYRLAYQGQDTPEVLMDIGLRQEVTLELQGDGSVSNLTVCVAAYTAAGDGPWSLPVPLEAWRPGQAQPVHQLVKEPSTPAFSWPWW

Take “AXL(C89E7) rabbit anti-human Axl monoclonal antibody (Cell Signaling)”: the % competition amounted to 3.3% in assay [1] and 1.5% in assay [3]. The OD (650 nm) in assay [2] is 2.13 OD (650 nm); in assay [4], 1.81 OD (650 nm).
